Experiments:
GST-C/EBPβ-bZIP (rat) [1] = target: T1, GST-C/EBPβ-bZIP (rat) (UniProt P21272); assay: fluorescence anisotropy competition; conditions: 25 mM Tris-HCl pH 7.6, 75 mM NaCl, 150 mM KCl, 5 mM MgCl2, 0.1 mM DTT, 0.01% NP-40, room temperature, 20 min
T1 sequence: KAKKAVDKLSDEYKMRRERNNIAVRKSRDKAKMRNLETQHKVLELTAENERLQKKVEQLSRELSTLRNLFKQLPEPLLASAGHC

GST-C/EBPβ-bZIP (rat) [2] = target: T1, GST-C/EBPβ-bZIP (rat); assay: fluorescence anisotropy; conditions: 25 mM Tris-HCl pH 7.6, 75 mM NaCl, 150 mM KCl, 5 mM MgCl2, 0.1 mM DTT, 0.01% NP-40, room temperature, 20 min

Question: For “CCCTGCTTGCATAACAGGCTC (double strand) [HPV18 BS2L competitor]”, which Ki (GST-C/EBPβ-bZIP (rat) [1]) is on record?
Answer: 0.154 µM

Question: “TTTGGCTTACACAATTGCTTT (double strand) [BS1 probe]” was tested. Which Kd (GST-C/EBPβ-bZIP (rat) [2]) did it give?
Answer: 0.062 µM

Question: For “CCCTGCTTACACAATAGGCTC (double strand) [BS1 competitor]”, which Ki (GST-C/EBPβ-bZIP (rat) [1]) is on record?
Answer: 0.083 µM

Question: For “CCCTGATTGCAAAATAGGCTC (double strand) [BS2 competitor]”, which Ki (GST-C/EBPβ-bZIP (rat) [1]) is on record?
Answer: 0.066 µM

Question: “CCCTGATTGCGCAATAGGCTC (double strand) [Consensus C/EBPβ competitor]” was tested. Which Ki (GST-C/EBPβ-bZIP (rat) [1]; vs 15 nM BS1 probe, 125 nM protein) did it give?
Answer: 0.027 µM

Reference: PMC6433916
